Data from article PMC9972910.

Columns and labels:
[1] = target: LptB2F^R212GG complex (Escherichia coli) (UniProt P0A9V1); assay: SPR; LptB2FG or LptB2F^R212GG covalently immobilised, increasing concentrations of monomeric LptA flowed over; fitted at equilibrium; details in Text S1
[2] = target: LptB2FG complex (Escherichia coli) (UniProt P0A9V1); assay: as above

Substance: monomeric version of LptA (from UniProt P0ADV1 28-159) (domain or fragment)
- Kd [1]: 81 µM
- Kd [2]: 74 µM
